# Experimental data reported in US20240309087A1 (SHANGHAI JUNSHI BIOSCIENCES, published 2024).
# Substitutions are numbered along the chain they refer to.
# T1: hCD112R mFC recombinant protein (human; murine, UniProt Q6DKI7 41-160)
# T1 construct: range 41-160; expressed in 293E cells; also called hCD112R ECD mFC; hCD112R-ECD-mFC; not shown: murine IgG2a Fc domain (MX2-mFc vector)
# T1 sequence (looked up): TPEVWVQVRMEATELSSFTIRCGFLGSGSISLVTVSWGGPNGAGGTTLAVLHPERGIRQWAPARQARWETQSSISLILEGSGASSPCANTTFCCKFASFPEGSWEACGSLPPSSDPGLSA
# T2: human CD112R on Jurkat CD112R effector cells (human, UniProt Q6DKI7 1-326)
# T2 sequence (looked up): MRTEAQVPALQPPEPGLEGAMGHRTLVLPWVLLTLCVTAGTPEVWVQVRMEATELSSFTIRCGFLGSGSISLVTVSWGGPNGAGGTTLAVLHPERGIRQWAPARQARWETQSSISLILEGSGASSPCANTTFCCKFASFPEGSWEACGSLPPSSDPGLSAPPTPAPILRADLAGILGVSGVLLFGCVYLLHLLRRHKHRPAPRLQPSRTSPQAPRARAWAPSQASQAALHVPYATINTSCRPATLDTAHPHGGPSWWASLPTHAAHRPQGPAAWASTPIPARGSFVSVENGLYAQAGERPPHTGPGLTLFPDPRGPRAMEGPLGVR
# B1: Hu22 (antibody, IgG4, V domains shown)
# VH: EVQLVESGGGLVKPGGSLRLSCAASGFTFSSYHMSWVRQAPGKGLELVSAISRDGDSTYYPDTVKGRFTISRDDAENSLYLQMNSLRAEDTAVYYCSRHEDYFGFAMDSWGQGTLVTVSS
# VL: DIVMTQSPDSLAVSLGERATINCKASQSVSNDVAWYQQKPGQPPKLLIYYVSHRFTGVPDRFSGSGSGTDFTLTISSLQAEDVAVYFCHQAYRSPWTFGQGTKLEIK
# notes: humanized IgG4
# B2: Hu29 (antibody, IgG4, V domains shown)
# VH: B1 VH with K13Q, S49A, D74N, E76K
# VL: DIQMTQSPSSLSASVGDRVTITCKASQSVSNDVAWYQQKPGKAPKLLIYYVSNRFTGVPSRFSGSGSGTDFTLTISSLQPEDFATYFCQQAYRSPWTFGQGTKLEIK
# notes: humanized IgG4
# B3: Hu23 (antibody, IgG4, V domains shown)
# VH: B1 VH
# VL: B2 VL
# notes: humanized IgG4
# B4: Hu35 (antibody, IgG4, V domains shown)
# VH: B1 VH with K13Q, S49A
# VL: B2 VL
# notes: humanized IgG4
# B5: Hu34 (antibody, IgG4, V domains shown)
# VH: B1 VH with K13Q, S49A
# VL: B1 VL
# notes: humanized IgG4
# B6: Hu28 (antibody, IgG4, V domains shown)
# VH: B1 VH with K13Q, S49A, D74N, E76K
# VL: B1 VL
# notes: humanized IgG4
# B7: Hu54 (antibody, IgG4, V domains shown)
# VH: EVQLVESGGGLVKPGGSLRLSCAASGFTFSSYHMSWVRQAPGKGLELVSAINSNGINTYYLDTVKGRFTISRDNAKNSLYLQMNSLRAEDTAVYYCARHEDYYGFAMDYWGQGTLVTVSS
# VL: EIVMTQSPPTLSLSPGERVTLSCKASQSVSNDVAWYQQKPGQAPRLLIYYVSNRFTGIPARFSGSGSGTDFTLTISSLQPEDFAVYFCQQAYRSPWTFGQGTKLEIK
# notes: humanized IgG4
# B8: Hu36 (antibody, IgG4, V domains shown)
# VH: B1 VH with K13Q, S49A
# VL: B7 VL
# notes: humanized IgG4
# B9: Hu33 (antibody, IgG4, V domains shown)
# VH: B1 VH with K13Q, S49A
# VL: B7 VL with Q38E, N53H, F87Y, Q89H
# notes: humanized IgG4
# B10: Hu24 (antibody, IgG4, V domains shown)
# VH: B1 VH
# VL: B7 VL
# notes: humanized IgG4
# B11: Hu17 (antibody, IgG4, V domains shown)
# VH: B1 VH with D74N, E76K
# VL: B2 VL
# notes: humanized IgG4
# B12: Hu30 (antibody, IgG4, V domains shown)
# VH: B1 VH with K13Q, S49A, D74N, E76K
# VL: B7 VL
# notes: humanized IgG4
# B13: Hu60 (antibody, IgG4, V domains shown)
# VH: B7 VH with K13Q, V37I, S49A
# VL: B7 VL
# notes: humanized IgG4
# B14: Hu57 (antibody, IgG4, V domains shown)
# VH: B7 VH with K13Q, V37I, S49A
# VL: B7 VL with Q38E, N53H, F87Y, Q89H
# notes: humanized IgG4
# Target: T1, hCD112R mFC recombinant protein
# Assay: ELISA, coated hCD112R-ECD-mFC
# Procedure, shortened: (§1)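 Plates coated with hCD112R-ECD-mFC at 1.5 μg/mL; humanized antibodies titrated from 1 μg/mL, 2.5-fold, 12 points. Bound antibody detected with HRP anti-human IgG Fc and TMB, read at 420/620 nm; EC50 from 4PL fit, COM701 and anti-KLH hu-IgG4 as controls.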
row,EC50,Binder
1,4.25 ng/mL,B1
2,4.13 ng/mL,B2
3,4.36 ng/mL,B3
4,4.39 ng/mL,B4
5,3.68 ng/mL,B5
6,4.79 ng/mL,B6
7,6.31 ng/mL,B7
8,4.2 ng/mL,B8
9,3.48 ng/mL,B9
10,4.29 ng/mL,B10
11,4.18 ng/mL,B11
12,3.96 ng/mL,B12
13,6.02 ng/mL,B13
14,5.35 ng/mL,B14

# Target: T1, hCD112R mFC recombinant protein
# Assay: FACS competition, hCD112R mFc on CHO CD112 cells; IC50 COM701/IC50 antibody
# Procedure, shortened: (§2)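 CHO cells overexpressing human CD112 were co-incubated 30 min at 4 °C with hCD112R mFc (5 μg/mL) and humanized anti-CD112R antibodies (from 100 μg/mL, 3-fold, 10 points). Bound fusion protein detected with anti-mouse IgG Fc secondary by flow cytometry; IC50 from four-parameter fit of MFI. COM701 served as positive control, anti-KLH hu-IgG4 as negative.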
row,Relative activity (%),Binder
1,134%,B1
2,97%,B2
3,141%,B3
4,105%,B4
5,149%,B5
6,157%,B6
7,74.1%,B7
8,146%,B8
9,144%,B9
10,124%,B10
11,169%,B11
12,151%,B12
13,69%,B13
14,66.2%,B14

# Target: T2, human CD112R on Jurkat CD112R effector …
# Assay: cell-based or functional assay
"EC50, CD112R/CD112 reporter","Relative activity (%), EC50 COM701/EC50 antibody",Binder
26.7 ng/mL,191%,B1
27.2 ng/mL,230%,B2
37.4 ng/mL,217%,B3
31 ng/mL,184%,B4
33.6 ng/mL,160%,B5
30.6 ng/mL,232%,B6
24.1 ng/mL,300%,B7
35.6 ng/mL,160%,B8
34.1 ng/mL,157%,B9
48.5 ng/mL,167%,B10
22.8 ng/mL,241%,B11
34 ng/mL,184%,B12
22.5 ng/mL,261%,B13
1330 ng/mL,4.5%,B14

# Target: T1, hCD112R mFC recombinant protein
# Assay: ELISA, coated hCD112R-ECD-mFC; EC50 COM701/EC50 antibody
# Procedure, shortened: as §1
row,Relative activity (%),Binder
1,156%,B1
2,147%,B2
3,153%,B3
4,136%,B4
5,162%,B5
6,127%,B6
7,145%,B7
8,142%,B8
9,174%,B9
10,155%,B10
11,136%,B11
12,153%,B12
13,139%,B13
14,171%,B14

# Target: T1, hCD112R mFC recombinant protein
# Assay: FACS competition, hCD112R mFc on CHO CD112 cells
# Procedure, shortened: as §2
row,IC50,Binder
1,2.67 µg/mL,B1
2,3.67 µg/mL,B2
3,2.53 µg/mL,B3
4,3.4 µg/mL,B4
5,2.4 µg/mL,B5
6,2.27 µg/mL,B6
7,3.25 µg/mL,B7
8,2.44 µg/mL,B8
9,2.48 µg/mL,B9
10,2.89 µg/mL,B10
11,2.12 µg/mL,B11
12,2.37 µg/mL,B12
13,3.49 µg/mL,B13
14,3.64 µg/mL,B14
